{"source": "paper PMC2289016", "key": {"[1]": {"target": "rabbit skeletal muscle actin (rabbit) (UniProt P68135)", "assay": "actin elongation rate at the barbed end"}, "[2]": {"target": "rabbit skeletal muscle actin (rabbit) (UniProt P68135)", "assay": "ultrafiltration"}}}
{"substance": "human platelet profilin (from UniProt P07737 1-140) (natural protein)", "values": [{"measurement": "Kd", "setting": "[1]", "result": 22.5, "unit": "µM"}, {"measurement": "Kd", "setting": "[2]", "result": 2.3, "unit": "µM"}]}
